Stoichiometry N data for 1 substance are collected here from paper PMC7058303.

The target in this assay is Sus1 from S. cerevisiae (recombinant) (Saccharomyces cerevisiae) (UniProt Q6WNK7). As to the kind of experiment: SEC; Superdex 75 10/300 GL, calibrated with molecular weight markers; non-dissociating conditions; elution volume 12 ml.

One may read the stoichiometry N as a count of units in the complex or per binding partner.

As to “Sus1 from S. cerevisiae (recombinant) (from UniProt Q6WNK7 1-96) (natural protein)”, the stoichiometry N was determined as 3.
